Here are results for one molecule from patent publication USRE44359 (Hoffmann-La Roche Inc, dated 2013).

This assay concerns the target T1, Recombinant P-selectin (R&D Systems) (human, UniProt P16109 42-771).
T1 construct: extracellular domain; also called recombinant human P-selectin; recombinant truncated form of P-selectin
T1 sequence (looked up): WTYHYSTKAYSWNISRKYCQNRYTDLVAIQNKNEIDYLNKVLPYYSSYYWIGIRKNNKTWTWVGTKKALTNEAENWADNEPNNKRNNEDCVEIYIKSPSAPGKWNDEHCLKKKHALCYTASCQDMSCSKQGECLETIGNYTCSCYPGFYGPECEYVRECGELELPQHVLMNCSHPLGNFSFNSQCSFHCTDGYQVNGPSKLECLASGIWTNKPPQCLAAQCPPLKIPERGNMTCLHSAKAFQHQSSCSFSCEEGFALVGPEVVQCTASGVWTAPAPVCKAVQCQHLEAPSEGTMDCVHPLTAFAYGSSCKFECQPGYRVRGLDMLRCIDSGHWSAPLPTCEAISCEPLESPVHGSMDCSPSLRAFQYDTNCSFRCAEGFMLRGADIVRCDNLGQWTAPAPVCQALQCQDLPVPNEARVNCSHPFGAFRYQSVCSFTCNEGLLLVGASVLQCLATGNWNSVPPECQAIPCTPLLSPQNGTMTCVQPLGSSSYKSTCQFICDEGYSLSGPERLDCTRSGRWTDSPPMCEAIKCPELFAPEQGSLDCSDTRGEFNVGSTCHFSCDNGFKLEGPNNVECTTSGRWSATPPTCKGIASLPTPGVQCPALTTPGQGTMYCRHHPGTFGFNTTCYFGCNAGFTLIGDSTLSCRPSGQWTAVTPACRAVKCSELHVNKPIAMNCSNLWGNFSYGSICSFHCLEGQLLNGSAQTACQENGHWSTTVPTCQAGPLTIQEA
The assay can be described thus: SPR, BIACORE 2000; antibody captured by anti-human Fcγ on CM5, recombinant P-selectin 0-50 nM as analyte; 1:1 Langmuir fit. On the technique in general: In SPR one partner is held on a chip, and binding of the other changes the refractive index at the surface.

B1: HuMab 017 (antibody, V domains shown)
VH: QPQLVQSGAEVKKPGASVKVSCKVSGNTLTELSMHWVRQAPGKGLEWMGGFDPENGEAIYAQKFQGRVTMTADTSTDTAYMDLSSLRSEDTAVYYCATDLAGGSDFYYYGLDVWGQGTTVTVSS
VL: AIQLTQSPSSLSASVGDRVTITCRASQGISSALAWYQQKPGKAPKLLIYDASSLESGVPSRFSGSGSGTDFTLTISSLQPEDFATYYCQQFNSYPYTFGQGTKLEIK
notes: Human monoclonal antibody; kappa light and gamma1 heavy chains by the cloning section; also called antibody 017; LC 1004-017
For the molecule B1, the Ka is 5.59e+09 M⁻¹.
